Source: US20020146750A1 (published 2002)
Numbering of substitutions follows the chain as printed. Each block holds one binder with its values, some of them ahead of it.

Biological target: T1, MUC1 60-mer peptide NH2-(…)3-COOH (biotinylated in the ELISAs and selections)
T1 construct: also called biotinylated MUC1 60-mer
Assay: ELISA, soluble Fab, biotinylated MUC1 60-mer; relative signal
Experimental: Soluble Fabs were produced as described (Roovers et al., Br. J. Cancer, 78: 1407-16 (1998)). ELISAs were performed as described by Henderikx et al. (Cancer Res., 58: 4324-4332 (1998)), except the biotinylated MUC1 60-mer was used. The selected PH1 and the affinity-matured antibodies were evaluated for affinity by surface plasmon resonance (SPR) on a BIAcore 2000 apparatus (BIAcore AB, Uppsala, Sweden). Channels of a biotin chip were coated with a MUC1 15-mer, containing the minimal PH1 epitope, PAP, (Ac-PDTRPAPGSTAPPAL-NH₂, (SEQ ID NO:40) 50 RU or 320 RU) or a 60-mer (NH₂-([…])₃-COOH (i.e., containing three copies of SEQ ID NO:8 (von Mensdorff-Pouilly et al., Tumor Biol., 19: 186-195 (1998), 50 RU) in HBS-EP buffer (Pharmacia). One surface was blocked with biotin (15 RU) and used as a negative control. The antibodies were injected in HBS-EP buffer. To minimize rebinding of the antigen binding fragments, the flow speed was 30 μl/sec. Affinity calculation was performed with the BIA-evaluation software provided by the BIAcore. The affinities of the Fabs were calculated according to a 1:1 stoichiometry at steady state.

T1 sequence (peptide, as listed by the source): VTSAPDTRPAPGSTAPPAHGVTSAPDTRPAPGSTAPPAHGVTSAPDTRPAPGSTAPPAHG

binding result: binds
B1: 3A7 (Fab, V domains shown)
VH: QVQLVQSGGGLVQPGGSLRLSCAASGFTFRSNAMGWVRQAPGKGLEWVSGISGSGGSTYYADSVKGRFTISRDNSKNTLYLQMNSLRAEDTAVYYCAKHTGGGVWDPIDKWGQGTLVTVSS
VL: EIVLTQSPLSLPVTPGEPASISCRSSQSLLHSNGYTYLDWYLQKPGQSPQLLIYSGSHRASGVPDRFSGSVSGTDFTLRISRVEAEDVGVYYCMQGLQSPFTFGPGTKVDIKR
notes: PH1 Fab variant

binding result: binds
B2: 10F8 (Fab, V domains shown)
VH: B1 VH with I108M, D109H, K110Y
VL: B1 VL
notes: PH1 Fab variant

binding result: binds
B3: 6C10 (Fab, V domains shown)
VH: B1 VH with D109H, K110Y
VL: B1 VL
notes: PH1 Fab variant

binding result: binds
B4: 6C8 (Fab, V domains shown)
VH: B1 VH with D109N, K110D
VL: B1 VL
notes: PH1 Fab variant

binding result: binds
B5: 3E2 (Fab, V domains shown)
VH: B1 VH with D109A, K110Y
VL: B1 VL
notes: PH1 Fab variant

binding result: binds
B6: 3F3 (Fab, V domains shown)
VH: B1 VH with G102R, K110Y
VL: B1 VL
notes: PH1 Fab variant

binding result: binds
B7: 6A9 (Fab, V domains shown)
VH: B1 VH with G102S, D109N, K110Y
VL: B1 VL
notes: PH1 Fab variant

binding result: binds
B8: 3G1 (Fab, V domains shown)
VH: B1 VH with K110D
VL: B1 VL
notes: PH1 Fab variant

binding result: binds
B9: 10A9 (Fab, V domains shown)
VH: B1 VH with D109H, K110N
VL: B1 VL
notes: PH1 Fab variant

binding result: binds
B10: 10E10 (Fab, V domains shown)
VH: B1 VH with D106N, K110Y
VL: B1 VL
notes: PH1 Fab variant

B11: 7D1 (Fab, V domains shown)
VH: B1 VH with D109K, K110H
VL: B1 VL
notes: PH1 Fab variant; also called clone 7D1
binding result: binds

binding result: binds
B12: 10C10 (Fab, V domains shown)
VH: B1 VH with G102V, D109K, K110Y
VL: B1 VL
notes: PH1 Fab variant

binding result: binds
B13: 3D1 (Fab, V domains shown)
VH: B1 VH with K98Q, D109G, K110Y
VL: B1 VL
notes: PH1 Fab variant

binding result: binds
B14: 3F4 (Fab, V domains shown)
VH: B1 VH with D109A, K110N
VL: B1 VL
notes: PH1 Fab variant

binding result: binds
B15: 10E1 (Fab, V domains shown)
VH: B1 VH with D109A, K110Y
VL: B1 VL
notes: PH1 Fab variant

binding result: binds
B16: 6C5 (Fab, V domains shown)
VH: B1 VH with A97V, D109V, K110Y
VL: B1 VL
notes: PH1 Fab variant

binding result: binds
B17: 3B9 (Fab, V domains shown)
VH: B1 VH with I108L, D109G, K110Y
VL: B1 VL
notes: PH1 Fab variant

binding result: binds
B18: 5A6 (Fab, V domains shown)
VH: B1 VH with A97V, K110Y
VL: B1 VL
notes: PH1 Fab variant

binding result: binds
B19: 8F5 (Fab, V domains shown)
VH: B1 VH with D109A, K110Y
VL: B1 VL
notes: PH1 Fab variant

binding result: binds
B20: 10F3 (Fab, V domains shown)
VH: B1 VH with D109V, K110P
VL: B1 VL
notes: PH1 Fab variant

binding result: binds
B21: 6B6 (Fab, V domains shown)
VH: B1 VH with D109G, K110Y
VL: B1 VL
notes: PH1 Fab variant

binding result: binds
B22: 6B3 (Fab, V domains shown)
VH: B1 VH with D109G, K110H
VL: B1 VL
notes: PH1 Fab variant

binding result: binds
B23: 7B5 (Fab, V domains shown)
VH: B1 VH with D109A, K110Y
VL: B1 VL
notes: PH1 Fab variant

binding result: binds
B24: 3B8 (Fab, V domains shown)
VH: B1 VH with G102A, K110Y
VL: B1 VL
notes: PH1 Fab variant

binding result: binds
B25: 3H1 (Fab, V domains shown)
VH: B1 VH with I108F, D109A, K110Y
VL: B1 VL
notes: PH1 Fab variant

B26: 7F3 (Fab, V domains shown)
VH: B1 VH with K98I, D109K, K110Y
VL: B1 VL
notes: PH1 Fab variant; also called clone 7F3
binding result: binds

binding result: binds
B27: 3F7 (Fab, V domains shown)
VH: B1 VH with D109Y, K110Y
VL: B1 VL
notes: PH1 Fab variant

binding result: binds
B28: 6B5 (Fab, V domains shown)
VH: B1 VH with D109A, K110Y
VL: B1 VL
notes: PH1 Fab variant

binding result: binds
B29: 10B3 (Fab, V domains shown)
VH: B1 VH with D109G, K110Y
VL: B1 VL
notes: PH1 Fab variant

binding result: binds
B30: 3H2 (Fab, V domains shown)
VH: B1 VH with I108M, K110Y
VL: B1 VL
notes: PH1 Fab variant

binding result: binds
B31: 3D7 (Fab, V domains shown)
VH: B1 VH with G102A, K110Y
VL: B1 VL
notes: PH1 Fab variant

binding result: binds
B32: 6E4 (Fab, V domains shown)
VH: B1 VH with I108V, K110Y
VL: B1 VL
notes: PH1 Fab variant

binding result: binds
B33: 6F4 (Fab, V domains shown)
VH: B1 VH with A97S, D109G, K110Y
VL: B1 VL
notes: PH1 Fab variant
